Assay [1] concerns the target T1, VEGFR-2 (Homo sapiens, UniProt P35968).
T1 construct: endogenous in cells; host or cells: HUVEC
Briefly: pVEGFR AlphaLISA assay (VEGFR-2 phosphorylation, p-Tyr1175) in HUVECs. The class given is cell-based. As to conditions: 10 minutes stimulation, % activity, maximum VEGF165a signal = 100%, unstimulated = 0%. The method, then:
To evaluate the VEGFR-2 activation ability of the VEGFR-2 agonist peptides of the present invention, VEGFR-2 phosphorylation was verified. HUVECs were cultured using EGM™ -2 Endothelial Cell Growth Medium-2 BulletKit (LONZA; CC-3162). After detaching cells using Tryple (Thermo Fisher Scientific), they were seeded into a 96-well PDL-coated plate (Corning: 354461) at a density of 24,000 cells per well and cultured for 2 days. For starvation, the medium was replaced with EBM-2 medium (LONZA) containing 0.5% FBS (Thermo Fisher Scientific), 0.1% heparin (included with the above LONZA CC-3162), and 0.1% gentamicin (Nacalai), and the cells were cultured for 18 hours. Subsequently, Recombinant Human VEGF165a Protein (R&D Systems) or the peptide was added, and the cells were cultured in a CO2 incubator at 37°C. After 10 minutes of stimulation, cells were lysed using the Lysis Buffer included in the AlphaLISA SureFire Ultra VEGFR-2 (p-Tyr1175) Assay Kit (PerkinElmer) to lyse the cells. The procedure was performed according to the kit protocol, and signal detection was performed using a SpectraMax Paradigm multimode microplate reader (Molecular Devices). The obtained signals were analyzed using GraphPad Prism, and % activity was calculated with the maximum signal induced by VEGF165a set as 100% and the unstimulated control as 0%.
The VEGF165a concentration was evaluated at five points (0.08, 0.31, 1.25, 5, 20 nM) using 1/4-fold dilutions starting from 20 nM to determine the maximum value (100%). Peptide concentrations tested were: 3.2, 16, 80 nM for dimer structure number 1; 10, 100 nM for dimer structures numbers 2-41; and 1.25, 5, 20 nM for dimer structures numbers 42-57. […]
Peptides showing 50% or more activity at 10 nM were designated 2-A, those showing 50% or more activity at 100 nM were designated 2-B, and those showing 1% or more but less than 50% activity at 100 nM were designated 2-C.
Peptides showing 50% or more activity at 1.25 nM were designated 3-A, those showing 50% or more activity at 5 nM were designated 3-B, those showing 50% or more activity at 20 nM were designated 3-C, and those showing 1% or more but less than 50% activity at 20 nM were designated 3-D.

The target of assay [2] is T2, VEGFR-2 (human, UniProt P35968 20-1356). Briefly: cell-based or functional assay.
In assay [3] the target is T2, VEGFR-2. Briefly: cell-based or functional assay. The source holds these as a separate data set.
[4] abbreviates: peptide 10, 100 nM (dimer structures 2-41).
Where [5] appears, read: peptide 1.25, 5, 20 nM (dimer structures 42-57).

*1 amine or outer side, *2 acyl side, *3 side chain or, on linkers, in order; H or OH if unused. Where a SMILES comes first, the peptide text is derived from it. Bridges are numbered along the chain shown (N, C = ends). Roman numbers before positions name the chains, in order. Where no end group is shown, it is not given here. [ ]: non-standard residue; d: D form. CO(CH2)2(OCH2CH2)17CO = O=C(CCOCCOCCOCCOCCOCCOCCOCCOCCOCCOCCOCCOCCOCCOCCOCCOCCOCCC(=O)[*:2])[*:1]; CO(CH2CH2O)9CH2CH2CO = O=C(CCOCCOCCOCCOCCOCCOCCOCCOCCOCCC(=O)[*:2])[*:1]; PEG12 = NCCOCCOCCOCCOCCOCCOCCOCCOCCOCCOCCOCCOCCC(=O)O; Phe(4-guanidino) = N=C(N)Nc1ccc(C[C@H](N)C(=O)O)cc1; hTyr = N[C@@H](CCc1ccc(O)cc1)C(=O)O; Cha = N[C@@H](CC1CCCCC1)C(=O)O; Chg = N[C@H](C(=O)O)C1CCCCC1; Tle = CC(C)(C)[C@H](N)C(=O)O

The record followed here is EP4748847A1, “PEPTIDE COMPLEX HAVING VEGFR -2 AGONIST ACTIVITY” (Peptidream Inc, priority 2023, dated 2025).

T2 sequence (P35968 20-1356): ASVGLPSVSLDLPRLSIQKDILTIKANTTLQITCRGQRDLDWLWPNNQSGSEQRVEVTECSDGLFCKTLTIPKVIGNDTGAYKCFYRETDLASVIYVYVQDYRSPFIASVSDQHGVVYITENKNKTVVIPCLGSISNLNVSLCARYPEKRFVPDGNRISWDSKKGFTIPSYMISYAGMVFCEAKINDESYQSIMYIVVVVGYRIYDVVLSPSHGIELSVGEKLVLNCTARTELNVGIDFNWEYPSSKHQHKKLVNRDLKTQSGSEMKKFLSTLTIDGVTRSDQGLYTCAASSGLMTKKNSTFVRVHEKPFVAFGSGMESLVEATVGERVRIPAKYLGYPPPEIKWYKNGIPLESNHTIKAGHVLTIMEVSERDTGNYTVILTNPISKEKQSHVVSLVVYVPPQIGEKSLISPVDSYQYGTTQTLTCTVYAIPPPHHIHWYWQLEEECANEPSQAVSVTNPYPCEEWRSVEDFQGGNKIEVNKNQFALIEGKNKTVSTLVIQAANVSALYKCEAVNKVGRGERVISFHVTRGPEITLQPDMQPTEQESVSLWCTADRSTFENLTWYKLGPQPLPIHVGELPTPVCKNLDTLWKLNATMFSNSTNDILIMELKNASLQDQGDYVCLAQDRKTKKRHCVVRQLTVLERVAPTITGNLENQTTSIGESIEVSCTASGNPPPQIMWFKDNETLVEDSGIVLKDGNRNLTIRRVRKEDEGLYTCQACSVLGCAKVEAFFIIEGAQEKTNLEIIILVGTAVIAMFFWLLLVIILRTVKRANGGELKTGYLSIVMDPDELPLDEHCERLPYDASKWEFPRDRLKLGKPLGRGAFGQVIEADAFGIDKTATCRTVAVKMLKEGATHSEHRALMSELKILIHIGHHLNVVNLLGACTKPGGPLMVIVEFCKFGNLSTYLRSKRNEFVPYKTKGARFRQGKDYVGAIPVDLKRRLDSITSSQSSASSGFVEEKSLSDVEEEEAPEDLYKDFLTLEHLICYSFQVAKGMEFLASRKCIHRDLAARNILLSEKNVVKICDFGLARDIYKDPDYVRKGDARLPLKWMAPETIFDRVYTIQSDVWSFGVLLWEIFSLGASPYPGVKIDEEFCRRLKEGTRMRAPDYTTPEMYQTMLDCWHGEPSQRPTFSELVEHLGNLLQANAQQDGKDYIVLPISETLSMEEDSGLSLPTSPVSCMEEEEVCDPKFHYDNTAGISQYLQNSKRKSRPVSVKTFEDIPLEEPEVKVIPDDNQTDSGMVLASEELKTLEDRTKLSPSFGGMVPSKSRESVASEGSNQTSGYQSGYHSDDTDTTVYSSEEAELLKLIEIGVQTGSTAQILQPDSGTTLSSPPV
T1 sequence (P35968 20-1356): as above

For the molecule `CC(C)C[C@@H]1NC(=O)[C@H](CC(=O)O)NC(=O)CNC(=O)[C@H](CCC(N)=O)NC(=O)[C@H](C(C)C)NC(=O)[C@H](CC(=O)O)NC(=O)[C@H](C(C)C)NC(=O)[C@H](Cc2c[nH]c3ccccc23)NC(=O)[C@H](Cc2c[nH]c3ccccc23)NC(=O)CSC[C@@H](C(=O)NCC(=O)NCCOCCOCCOCCOCCOCCOCCOCCOCCOCCOCCOCCOCCC(=O)NCCCC[C@H](NC(=O)CCOCCOCCOCCOCCOCCOCCOCCOCCOCCOCCOCCOCCNC(=O)CNC(=O)[C@@H]2CSCC(=O)N[C@@H](Cc3c[nH]c4ccccc34)C(=O)N[C@@H](Cc3c[nH]c4ccccc34)C(=O)N[C@@H](C(C)C)C(=O)N[C@@H](CC(=O)O)C(=O)N[C@@H](C(C)C)C(=O)N[C@@H](CCC(N)=O)C(=O)NCC(=O)N[C@@H](CC(=O)O)C(=O)N[C@@H](CC(C)C)C(=O)N[C@@H](Cc3ccc(O)cc3)C(=O)N[C@@H](Cc3ccccc3)C(=O)N[C@@H](C(C)C)C(=O)N[C@@H](CC(=O)O)C(=O)N2)C(N)=O)NC(=O)[C@H](CC(=O)O)NC(=O)[C@H](C(C)C)NC(=O)[C@H](Cc2ccccc2)NC(=O)[C@H](Cc2ccc(O)cc2)NC1=O` [compound 7] (I: {CH2CO}-WWVDVQGDLYFVDCG[PEG12]K-NH2 / II: {CH2CO}-WWVDVQGDLYFVDCG[PEG12]; amide I:17-II:C; thioether I:N-I:14, II:N-II:14), the “pVEGFR2 Assay Results” value on VEGFR-2 [1] (setting [4]) is reported as 2-C (1% or more but less than 50% activity at 100 nM).
`CC(C)C[C@@H]1NC(=O)[C@H](CC(=O)O)NC(=O)[C@H](CC(N)=O)NC(=O)[C@H](CCCCNC(=O)CCOCCOCCOCCOCCOCCOCCOCCOCCOCCOCCOCCOCCOCCOCCOCCOCCOCCC(=O)NCCCC[C@@H]2NC(=O)[C@H](C(C)C)NC(=O)[C@H](CC(=O)O)NC(=O)[C@H](C(C)(C)C)NC(=O)[C@H](Cc3c[nH]c4ccccc34)NC(=O)[C@H](Cc3c[nH]c4ccccc34)NC(=O)CSC[C@@H](C(=O)NCC(N)=O)NC(=O)[C@H](CC(=O)O)NC(=O)[C@H](CCc3ccc(O)cc3)NC(=O)[C@H](Cc3ccccc3)NC(=O)[C@H](Cc3ccc(O)cc3)NC(=O)[C@H](CC(C)C)NC(=O)[C@H](CC(=O)O)NC(=O)[C@H](CC(N)=O)NC2=O)NC(=O)[C@H](C(C)C)NC(=O)[C@H](CC(=O)O)NC(=O)[C@H](C(C)(C)C)NC(=O)[C@H](Cc2c[nH]c3ccccc23)NC(=O)[C@H](Cc2c[nH]c3ccccc23)NC(=O)CSC[C@@H](C(=O)NCC(N)=O)NC(=O)[C@H](CC(=O)O)NC(=O)[C@H](CCc2ccc(O)cc2)NC(=O)[C@H](Cc2ccccc2)NC(=O)[C@H](Cc2ccc(O)cc2)NC1=O` [compound 47] (I: {CH2CO}-WW[Tle]DVKNDLYF[hTyr]DCG-NH2 / II: {CH2CO}-WW[Tle]DVKNDLYF[hTyr]DCG-NH2; linker I:6-II:6 via CO(CH2)2(OCH2CH2)17CO; thioether I:N-I:14, II:N-II:14): the “pVEGFR2 Assay Results” value on VEGFR-2 [1] (setting [5]) is listed as 3-C (50% or more activity at 20 nM).
`CC(C)C[C@@H]1NC(=O)[C@H](CC(=O)O)NC(=O)[C@H](CC(=O)O)NC(=O)[C@H](CCCCNC(=O)CCOCCOCCOCCOCCOCCOCCOCCOCCOCCOCCOCCOCCOCCOCCOCCOCCOCCC(=O)NCCCC[C@@H]2NC(=O)[C@H](C(C)C)NC(=O)[C@H](CC(=O)O)NC(=O)[C@H](C(C)(C)C)NC(=O)[C@H](Cc3c[nH]c4ccccc34)NC(=O)[C@H](Cc3c[nH]c4ccccc34)NC(=O)CSC[C@@H](C(=O)NCC(N)=O)NC(=O)[C@H](CC(=O)O)NC(=O)[C@H](C(C)C)NC(=O)[C@H](Cc3ccc(NC(=N)N)cc3)NC(=O)[C@H](Cc3ccc(O)cc3)NC(=O)[C@H](CC(C)C)NC(=O)[C@H](CC(=O)O)NC(=O)[C@H](CC(=O)O)NC2=O)NC(=O)[C@H](C(C)C)NC(=O)[C@H](CC(=O)O)NC(=O)[C@H](C(C)(C)C)NC(=O)[C@H](Cc2c[nH]c3ccccc23)NC(=O)[C@H](Cc2c[nH]c3ccccc23)NC(=O)CSC[C@@H](C(=O)NCC(N)=O)NC(=O)[C@H](CC(=O)O)NC(=O)[C@H](C(C)C)NC(=O)[C@H](Cc2ccc(NC(=N)N)cc2)NC(=O)[C@H](Cc2ccc(O)cc2)NC1=O` [compound 43] (I: {CH2CO}-WW[Tle]DVKDDLY[Phe(4-guanidino)]VDCG-NH2 / II: {CH2CO}-WW[Tle]DVKDDLY[Phe(4-guanidino)]VDCG-NH2; linker I:6-II:6 via CO(CH2)2(OCH2CH2)17CO; thioether I:N-I:14, II:N-II:14): the “pVEGFR2 Assay Results” value at VEGFR-2 [1] (setting [5]) is 3-C (50% or more activity at 20 nM).
For `CC(C)C[C@@H]1NC(=O)[C@H](CC(=O)O)NC(=O)[C@H](CC(=O)O)NC(=O)[C@H](CCCCNC(=O)CCOCCOCCOCCOCCOCCOCCOCCOCCOCCOCCOCCOCCOCCOCCOCCOCCOCCC(=O)NCCCC[C@@H]2NC(=O)[C@H](C(C)C)NC(=O)[C@H](CC(=O)O)NC(=O)[C@H](C(C)(C)C)NC(=O)[C@H](Cc3c[nH]c4ccccc34)NC(=O)[C@H](Cc3c[nH]c4ccccc34)NC(=O)CSC[C@@H](C(=O)NCC(N)=O)NC(=O)[C@H](CC(=O)O)NC(=O)[C@H](C(C)C)NC(=O)[C@H](Cc3ccc(NC(=N)N)cc3)NC(=O)[C@H](Cc3ccc(O)cc3)NC(=O)[C@H](CC(C)C)NC(=O)[C@H](CC(=O)O)NC(=O)[C@H](CC(=O)O)NC2=O)NC(=O)[C@H](C(C)C)NC(=O)[C@H](CC(=O)O)NC(=O)[C@H](C(C)(C)C)NC(=O)[C@H](Cc2c[nH]c3ccccc23)NC(=O)[C@H](Cc2c[nH]c3ccccc23)NC(=O)CSC[C@@H](C(=O)NCC(N)=O)NC(=O)[C@H](CC(=O)O)NC(=O)[C@H](C(C)C)NC(=O)[C@H](Cc2ccc(NC(=N)N)cc2)NC(=O)[C@H](Cc2ccc(O)cc2)NC1=O` [Dimer Structure No. 43] (I: {CH2CO}-WW[Tle]DVKDDLY[Phe(4-guanidino)]VDCG-NH2 / II: {CH2CO}-WW[Tle]DVKDDLY[Phe(4-guanidino)]VDCG-NH2; linker I:6-II:6 via CO(CH2)2(OCH2CH2)17CO; thioether I:N-I:14, II:N-II:14), at VEGFR-2 [1] (setting [4]), the “pVEGFR2 Assay Results” value was 2-C (1% or more but less than 50% activity at 100 nM).

B1: Peptide complex Dimer Structure No. 5 (peptide)
peptide: {CH2CO}-WWVDV[Cha]DDLYFVDCG
modifications: thioether N-14; also: dimer: C-terminus joined to second copy by PEG12c-K-PEG12c
With B1, the “pERK Assay Results (AlphaLISA p-Erk1/2, HUVEC)” value in the assay with VEGFR-2 [2] is not below 50 % activity at 10 nM. Further, the “proliferation (HUVEC, CellTiter-Glo)” value with VEGFR-2 [3] was less than 50 % activity at 100 nM.

B2: Peptide complex Dimer Structure No. 14 (peptide)
peptide: {CH2CO}-WWVDVKDDLYFVDCG-NH2
modifications: thioether N-14; not fully specified (residue 6); also: homodimer: Lys6 joined to Lys6 of second copy by cPEG13c (Linker Structure No. 3)
With B2, the “pERK Assay Results (AlphaLISA p-Erk1/2, HUVEC)” value with VEGFR-2 [2] was not below 50 % activity at 10 nM. In the assay with VEGFR-2 [3], the “proliferation (HUVEC, CellTiter-Glo)” value is less than 50 % activity at 100 nM.

B3: Peptide complex Dimer Structure No. 25 (peptide)
peptide: {CH2CO}-WW[Chg]DVKDDLYF[hTyr]DCG-NH2
modifications: thioether N-14; not fully specified (residue 6); also: homodimer: Lys6 joined to Lys6 of second copy by cPEG17c (Linker Structure No. 4)
Regarding B3, the “pERK Assay Results (AlphaLISA p-Erk1/2, HUVEC)” value with VEGFR-2 [2] was not below 50 % activity at 10 nM. For the same molecule, the “proliferation (HUVEC, CellTiter-Glo)” value with VEGFR-2 [3] was not below 50 % activity at 10 nM.

B4: Peptide complex Dimer Structure No. 13 (peptide)
peptide: {CH2CO}-WWVDVK(CO(CH2CH2O)9CH2CH2CO)DDLYFVDCG-NH2
modifications: thioether N-14; also: dimer: Lys6 joined to Lys6 of second copy by cPEG9c
As for B4, in the assay with VEGFR-2 [2], the “pERK Assay Results (AlphaLISA p-Erk1/2, HUVEC)” value is not below 50 % activity at 10 nM. For the same molecule, the “proliferation (HUVEC, CellTiter-Glo)” value in the assay with VEGFR-2 [3] was less than 50 % activity at 100 nM.
